Target: asialoglycoprotein receptor on Hep G2 cells (human (Hep G2 cells)) (UniProt P07306)
Experiment: cell-based or functional assay

Sequence of UniProt P07306 (P07306 whole entry): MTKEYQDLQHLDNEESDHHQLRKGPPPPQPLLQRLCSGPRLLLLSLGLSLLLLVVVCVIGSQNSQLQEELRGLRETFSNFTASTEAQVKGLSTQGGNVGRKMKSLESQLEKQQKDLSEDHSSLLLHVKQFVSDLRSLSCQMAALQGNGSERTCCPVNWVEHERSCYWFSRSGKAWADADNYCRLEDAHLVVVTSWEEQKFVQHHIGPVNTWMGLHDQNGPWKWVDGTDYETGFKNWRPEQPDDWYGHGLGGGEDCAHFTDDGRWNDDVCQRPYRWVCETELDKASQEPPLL

## [YEE(ah-GalNAc)3]-SMCC-AET-pU^mpT7
  cell association (uptake) by Hep G2 cells, 1 uM conjugate alone, 37 C, two hours (pmol per 10^6 cells): 7.8
  cell association (uptake) by Hep G2 cells, 1 uM conjugate with a 100-fold excess of free 5, 37 C, two hours (pmol per 10^6 cells): 0.42
  uptake by Hep G2 cells, 1 uM conjugate, 37 C, about 24 hours (pmol per 10^6 cells): 26.6

Source: patent US20060183886A1
